Here are results for seven molecules from patent US20200190192A1 (SUTRO BIOPHARMA, published 2020).

Read-outs that look alike come from different tables or passages of the source.

The target of assay [1] is T1, human Tim-3 expressed on the cell surface (human, UniProt Q8TDQ0 22-301).
T1 construct: also called hTim-3; Human Tim-3 (CHO)
Put plainly: flow cytometry, activated human CD4+ T cells. In general terms: In flow cytometry, cells or beads pass a laser one at a time.

Assay [2] has as its target T2, cynomolgus Tim-3 expressed on CHO cells (cynomolgus monkey).
T2 construct: also called cTim-3; Cyno Tim-3 (CHO)
T2 chain: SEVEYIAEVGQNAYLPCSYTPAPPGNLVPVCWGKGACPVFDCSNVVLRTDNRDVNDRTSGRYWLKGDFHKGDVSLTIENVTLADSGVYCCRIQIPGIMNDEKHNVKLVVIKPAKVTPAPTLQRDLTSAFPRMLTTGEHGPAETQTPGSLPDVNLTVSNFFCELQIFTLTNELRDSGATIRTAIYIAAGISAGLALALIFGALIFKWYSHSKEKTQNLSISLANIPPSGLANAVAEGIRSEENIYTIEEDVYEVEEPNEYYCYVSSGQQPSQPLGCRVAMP
Put plainly: flow cytometry, CHO-cyno Tim-3 cells.

Assay [3] has as its target T3, recombinant human Tim-3-Fc (R&D Systems, 2365-TM) (human, UniProt Q8TDQ0 22-202, biotinylated in the Galectin-9 competition ELISA (sites not given)).
T3 construct: Bought protein; also called huTim-3-Fc; biotinylated Tim-3-Fc; not shown: Fc of the bought fusion protein
As to the kind of experiment: SPR Biacore, human Tim-3 Fc.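 Note: antibodies captured on an anti-FLAG sensor surface, Tim-3-Fc flowed over as analyte at 25 °C in HBS-EP+ buffer, rates fit with a 1:1 Langmuir model.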 In general terms: In SPR one partner is held on a chip, and binding of the other changes the refractive index at the surface.

Assay [4] deals with T1, human Tim-3 expressed on the cell …. Put plainly: flow cytometry, CHO-human Tim-3 cells.
The target in assay [5] is T3, recombinant human Tim-3-Fc (R&D …). Put plainly: SPR Biacore, human Tim-3 Fc; KD estimated.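 Note: antibodies captured on an anti-FLAG sensor surface, Tim-3-Fc flowed over as analyte at 25 °C in HBS-EP+ buffer, rates fit with a 1:1 Langmuir model.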
Assay [6] deals with T4, human Tim-3 (Biacore analyte; TIM-3-Fc or TIM-3-HIS, not said which) (human, UniProt Q8TDQ0 22-202).
T4 construct: also called TIM-3 antigen; not shown: Fc or HIS tag
Put plainly: SPR Biacore, human Tim-3 (Fc or HIS not said).

For assay [7], the target named is T2, cynomolgus Tim-3 expressed on CHO cells. Put plainly: flow cytometry, CHO-cyno Tim-3 cells.
Assay [8] addresses T1, human Tim-3 expressed on the cell …. Put plainly: flow cytometry, CHO-human Tim-3 cells. The source holds these as a separate data set.

B1: h22E11-VK4-1 × h22E11-VH1-69 (antibody, V domains shown)
VH: QVQLVQSGAEVKKPGSSVKVSCKVSGFSLTSYGVHWVRQAPGQGLEWLVVIWSDGSTTYNQKFQGRVTITKDESTSTVYMELSSLRSEDTAVYYCARQGGYRYDDAMDYWGQGTLVTVSS
VL: DIVLTQSPDSLAVSLGERATINCKASQSVDYDGNSYVNWYQQKPGQPPKLLIYAASNLESGVPDRFSGSGSGTDFTLTISSLQAEDVAVYYCQQSNEDPYTFGQGTKVEIK
notes: Humanized m22E11
Regarding B1, the Kd is 6.3 nM in assay [1], 2.5 nM in assay [2], 1 nM in assay [4] and 5.5 nM in assay [5]. The koff in assay [3] turned out to be 0.000863 s⁻¹.

B2: h22E11-VK2-28 × h22E11-5-IgG-HC (antibody, V domains shown)
VH: EVQLVESGGGLVQPGGSLRLSCAVSGFSLTSYGVHWVRQAPGKGLEWLVVIWSDGSTTYNSALKSRFTISKDNAKNSVYLQMNSLRAEDTAVYYCARQGGYRYDDAMDYWGQGTLVTVSS
VL: DIVLTQSPLSLPVTPGEPASISCKASQSVDYDGNSYVNWYLQKPGQSPQLLIYAASNLESGVPDRFSGSGSGTDFTLKISRVEAEDVGVYYCQQSNEDPYTFGQGTKVEIK
notes: Humanized m22E11
Regarding B2, the Kd in assay [1] is 3.3 nM; in assay [2], 4.1 nM; in assay [4], 0.8 nM; in assay [5] it was 6.7 nM. In assay [3], the koff is 0.00101 s⁻¹.

B3: h22E11-VK2-28 × h22E11-VH5-51 (antibody, V domains shown)
VH: EVQLVQSGAEVKKPGESLKISCKVSGFSLTSYGVHWVRQMPGKGLEWLVVIWSDGSTTYNPSFQGQVTISKDKSISTVYLQWSSLKASDTAMYYCARQGGYRYDDAMDYWGQGTLVTVSS
VL: DIVLTQSPLSLPVTPGEPASISCKASQSVDYDGNSYVNWYLQKPGQSPQLLIYAASNLESGVPDRFSGSGSGTDFTLKISRVEAEDVGVYYCQQSNEDPYTFGQGTKVEIK
notes: Humanized m22E11
Take B3: the Kd in assay [1] was 0.7 nM; in assay [2], 2.3 nM; in assay [4], 0.6 nM; in assay [5] it was 4.8 nM. Moreover, the koff in assay [3] came to 0.000903 s⁻¹.

B4: h22E11-VK2-28 × h22E11-VH4-30-4 (antibody, V domains shown)
VH: QVQLQESGPGLVKPSQTLSLTCTVSGFSLTSYGVHWIRQPPGKGLEWLVVIWSDGSTTYNPSLKSRVTISKDTSKNQVSLKLSSVTAADTAVYYCARQGGYRYDDAMDYWGQGTLVTVSS
VL: DIVLTQSPLSLPVTPGEPASISCKASQSVDYDGNSYVNWYLQKPGQSPQLLIYAASNLESGVPDRFSGSGSGTDFTLKISRVEAEDVGVYYCQQSNEDPYTFGQGTKVEIK
notes: Humanized m22E11
Regarding B4, the Kd was 9.2 nM in assay [1], 4.3 nM in assay [2], 0.8 nM in assay [4] and 7.9 nM in assay [5]. Moreover, the koff in assay [3] is 0.00109 s⁻¹.

B5: SRP1649-B06 (antibody, V domains shown)
VH: EVQLVESGGGLVQPGGSLRLSCAASGFNISNHAIHWVRQAPGKGLEWVADISPAVGYTDYADSVKDRFTISADTSKNTAYLQMNSLRAEDTAVYYCARGYVYRMWDSFDHWGQGTLVTVSS
VL: not shown
notes: IgG with trastuzumab LC; HIS- and FLAG-tagged
In assay [6], B5 gave a Kd of 66.9 nM, a koff of 0.0126 s⁻¹ and a kon of 189000 M⁻¹ s⁻¹. In assay [7], binding was put at a Kd of 1.9 nM. Also, the Kd in assay [8] came to 0.2 nM.

B6: SRP1649-B09 (antibody, V domains shown)
VH: EVQLVESGGGLVQPGGSLRLSCAASGFNIRNNAIHWVRQAPGKGLEWVADITPAGGYTGYADSVKDRFTISADTSKNTAYLQMNSLRAEDTAVYYCARGYIYRMWDSLDYWGQGTLVTVSS
VL: not shown
notes: as for B5
B6: the results for the Kd in assay [6], in assay [7] and in assay [8] were 18.8 nM, 9.4 nM and 0.2 nM, respectively. In assay [6], the koff came to 0.00249 s⁻¹. The association rate constant (kon) in assay [6] came out at 133000 M⁻¹ s⁻¹.

B7: SRP1649-C05 (antibody, V domains shown)
VH: EVQLVESGGGLVQPGGSLRLSCAASGFNIGKHVIHWVRQAPGKGLEWVADIVPNGGYTEYADSVKDRFTISADTSKNTAYLQMNSLRAEDTAVYYCARGYVYRMWDSFDYWGQGTLVTVSS
VL: not shown
notes: as for B5
Regarding B7, the Kd is 13.7 nM in assay [6], 0.8 nM in assay [7] and 0.2 nM in assay [8]. The koff in assay [6] came to 0.00166 s⁻¹. Further, the kon in assay [6] was 121000 M⁻¹ s⁻¹.

For orientation: Kd means the concentration at which binding is half-saturated. Usually koff stands for the rate constant with which the complex falls apart. The kon is the rate constant with which the complex forms.
